Assay results taken from the supplement of paper PMC6757056.
± gives the standard deviation of the averaged measurements.

B1: library; a variant is named by its letters at N, in order (parent)
chain: GCUGUCACCGAGAAACUGUGAAGUAUAUCUUAAACCUGGGCACUUAAAAGAUAUAUGGAGUUAGUAGUGCAACCUGCUCGGUCUGAUGAGUCCNNNNNNGGACGAAACAGC

Legend:
[1] = variants of: B1; experiment: FACS-Seq fitted mean relative fluorescence mCherry/BFP without ligand (log10 relative fluorescence); HEK293T; ligand: cyclic di-GMP (c-di-GMP-II aptamer); higher = higher reporter protein expression; conditions: ligand present: no
How it was run: (§1)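 An mCherry reporter containing the ribozyme switch and an EF1α-BFP marker were introduced by lentivirus into HEK293T libraries. Cells were enriched, incubated 48 h with or without ligand, sorted into 6 bins by mCherry/BFP, and bin genomic DNA was PCR-amplified, barcoded and sequenced on MiSeq. Fluorescence represents the normalized fitted normal mean of the bin counts. Fitting was done on log10(mCherry/BFP), scaling to five spiked-in control ribozymes.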

[2] = variants of: B1; experiment: normalized RNA/DNA level without ligand (relative to sTRSVctl = 100) (log10 (% of sTRSVctl)); HEK293T; ligand: cyclic di-GMP (c-di-GMP-II aptamer); higher = less ribozyme self-cleavage, higher mRNA level; conditions: reporter: mCherry (pCS4076), ligand present: no
How it was run: (§2)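 HEK293T cells received ligand, where used, 1 h before being transfected with 4 µg per 6-well well of library plasmids encoding reporter-linked ribozyme switches. After 72 h, RNA was extracted with EDTA and sequenced. RNA level was derived from RNA reads per DNA read, normalized to a spiked-in non-cleaving sequence or the top sequences, then scaled and log-transformed. Values were ×100 then log10, the top set was 25 sequences, and the minimum was 100 DNA reads.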

[3] = variants of: B1; experiment: FACS-Seq fitted mean relative fluorescence mCherry/BFP with ligand (log10 relative fluorescence); HEK293T; ligand: cyclic di-GMP (c-di-GMP-II aptamer); ligand concentration (+) FACS-Seq: 1 mM; higher = higher reporter protein expression; conditions: ligand present: yes
How it was run: as §1

[4] = variants of: B1; experiment: normalized RNA/DNA level with ligand (relative to sTRSVctl = 100) (log10 (% of sTRSVctl)); HEK293T; ligand: cyclic di-GMP (c-di-GMP-II aptamer); ligand concentration (+) RNA-Seq: 1 mM; higher = less ribozyme self-cleavage, higher mRNA level; conditions: reporter: mCherry (pCS4076), ligand present: yes
How it was run: as §2

Variant | FACS-Seq fitted mean (log10) [1] | normalized RNA/DNA level without ligand (log10) [2] | FACS-Seq fitted mean (log10) [3] | normalized RNA/DNA level with ligand (log10) [4]
UAGAAA | -0.272 ± 0.026 | 1.58 ± 0.037 | -0.0653 ± 0.024 | 1.75 ± 0.18
CAGUUU | -0.341 ± 0.0054 | 1.5 ± 0.0081 | -0.0345 ± 0.033 | 1.67 ± 0.12
CUGCAA | -0.468 ± 0.049 | 1.36 ± 0.11 | -0.0644 ± 0.035 | 1.59 ± 0.097
CUUUGU | – | 1.78 ± 0.029 | – | 1.87 ± 0.049
CGAGGG | – | 1.617 ± 0.014 | – | 1.76 ± 0.036
UCGAGG | – | 1.772 ± 0.011 | – | 1.87 ± 0.13
UUAUCU | – | 1.704 ± 0.0044 | – | 1.85 ± 0.083
AAUAGG | -0.474 ± 0.0071 | 1.5 ± 0.069 | -0.162 ± 0.0064 | 1.68 ± 0.12
UUGGUG | – | 1.6 ± 0.1 | – | 1.78 ± 0.11
AUGGUA | -0.519 ± 0.1 | 1.46 ± 0.066 | -0.143 ± 0.024 | 1.65 ± 0.098
UCUAUG | – | 1.7 ± 0.034 | – | 1.85 ± 0.09
GACGCU | – | 1.71 ± 0.043 | – | 1.81 ± 0.097
CCUUGC | – | 1.72 ± 0.059 | – | 1.83 ± 0.085
CCUUGA | – | 1.63 ± 0.029 | – | 1.83 ± 0.095
UAGCGU | – | 1.59 ± 0.056 | – | 1.72 ± 0.1
CGUACA | -0.654 ± 0.072 | 1.32 ± 0.032 | -0.354 ± 0.046 | 1.53 ± 0.12
AGAGCU | – | 1.713 ± 0.012 | – | 1.84 ± 0.043
UGGUGA | -0.506 ± 0.1 | 1.57 ± 0.12 | -0.257 ± 0.04 | 1.75 ± 0.1
GAAUGA | -0.606 ± 0.037 | 1.48 ± 0.06 | -0.296 ± 0.056 | 1.65 ± 0.16
AAAGAC | -0.0292 ± 0.22 | 1.56 ± 0.036 | 0.33 ± 0.099 | 1.75 ± 0.09
UGGUAG | – | 1.66 ± 0.035 | – | 1.82 ± 0.13
AAGAAC | -1.03 ± 0.025 | 1.55 ± 0.029 | -0.842 ± 0.066 | 1.73 ± 0.1
UAGGAU | – | 1.58 ± 0.049 | – | 1.76 ± 0.078

Variant | FACS-Seq fitted mean (log10) [1] | normalized RNA/DNA level without ligand (log10) [2] | FACS-Seq fitted mean (log10) [3] | normalized RNA/DNA level with ligand (log10) [4]
UACCCC | – | 1.7914 ± 0.0016 | – | 1.89 ± 0.11
GUUAGG | -0.197 ± 0.021 | 1.56 ± 0.061 | 0.171 ± 0.057 | 1.72 ± 0.076
CCUGGA | – | 1.56 ± 0.052 | – | 1.76 ± 0.069
AACAAU | -0.133 ± 0.038 | 1.594 ± 0.0028 | 0.103 ± 0.014 | 1.71 ± 0.13
GCAAUA | -0.419 ± 0.034 | 1.41 ± 0.079 | -0.0479 ± 0.074 | 1.63 ± 0.058
AACGCU | -0.0259 ± 0.099 | 1.704 ± 0.013 | 0.296 ± 0.0034 | 1.86 ± 0.076
CACCUA | -0.26 ± 0.028 | 1.36 ± 0.15 | 0.0161 ± 0.13 | 1.58 ± 0.12
GUCUGU | -0.165 ± 0.035 | 1.66 ± 0.044 | 0.0419 ± 0.17 | 1.81 ± 0.069
GGGAAU | – | 1.6 ± 0.095 | – | 1.79 ± 0.14
CUCAAG | – | 1.67 ± 0.022 | – | 1.84 ± 0.033
AGCAUG | -0.472 ± 0.038 | 1.53 ± 0.031 | -0.236 ± 0.053 | 1.71 ± 0.055
UUUGGU | – | 1.73 ± 0.043 | – | 1.88 ± 0.066
UUAGAU | – | 1.7 ± 0.031 | – | 1.83 ± 0.082
ACGUAG | – | 1.55 ± 0.021 | – | 1.72 ± 0.14
UCGACA | – | 1.619 ± 0.0042 | – | 1.77 ± 0.12
UAUCGC | – | 1.76 ± 0.019 | – | 1.83 ± 0.15
CAGCUC | – | 1.7753 ± 0.00068 | – | 1.87 ± 0.099
CAGCUU | -0.396 ± 0.075 | 1.62 ± 0.095 | -0.151 ± 0.049 | 1.75 ± 0.091
UGUGGG | -0.327 ± 0.023 | 1.74 ± 0.03 | -0.0766 ± 0.022 | 1.86 ± 0.12
AAGACA | -0.415 ± 0.14 | 1.55 ± 0.044 | -0.0423 ± 0.083 | 1.74 ± 0.1
GCUUCC | – | 1.72 ± 0.023 | – | 1.85 ± 0.034
GCUUCA | -0.32 ± 0.093 | 1.668 ± 0.013 | 0.00326 ± 0.00018 | 1.81 ± 0.11
UACGAU | – | 1.63 ± 0.046 | – | 1.8 ± 0.15

Variant | FACS-Seq fitted mean (log10) [1] | normalized RNA/DNA level without ligand (log10) [2] | FACS-Seq fitted mean (log10) [3] | normalized RNA/DNA level with ligand (log10) [4]
ACCACG | – | 1.633 ± 0.01 | – | 1.81 ± 0.12
GCCAUA | 0.0302 ± 0.039 | 1.55 ± 0.05 | 0.269 ± 0.026 | 1.72 ± 0.069
GUAACC | – | 1.77 ± 0.084 | – | 1.87 ± 0.092
CUGUAC | – | 1.67 ± 0.033 | – | 1.82 ± 0.096
CGAUAA | -0.6883 ± 0.0045 | 1.22 ± 0.1 | -0.358 ± 0.058 | 1.41 ± 0.033
CCUCCC | -0.363 ± 0.069 | 1.81 ± 0.025 | -0.153 ± 0.079 | 1.89 ± 0.12
AUUACA | – | 1.63 ± 0.027 | – | 1.79 ± 0.071
GUAUAG | -1.32 ± 0.018 | 1.56 ± 0.12 | -1.05 ± 0.12 | 1.74 ± 0.063
CCAUUG | -0.474 ± 0.062 | 1.28 ± 0.11 | -0.134 ± 0.034 | 1.55 ± 0.093
CCCCUC | – | 1.73 ± 0.0095 | – | 1.87 ± 0.079
CCCCUU | -0.25 ± 0.04 | 1.65 ± 0.019 | 0.125 ± 0.14 | 1.84 ± 0.12
CCCUAA | – | 1.45 ± 0.081 | – | 1.64 ± 0.13
CUUACA | -0.457 ± 0.02 | 1.55 ± 0.067 | -0.154 ± 0.088 | 1.72 ± 0.077
CUAGAA | -0.5 ± 0.054 | 1.38 ± 0.091 | -0.134 ± 0.032 | 1.6 ± 0.1
AAAACG | -0.442 ± 0.098 | 1.5 ± 0.072 | -0.105 ± 0.12 | 1.71 ± 0.079
GAGAAA | – | 1.6011 ± 0.00083 | – | 1.72 ± 0.1
UUGGAG | – | 1.6 ± 0.037 | – | 1.71 ± 0.066
CAAUUU | – | 1.51 ± 0.095 | – | 1.71 ± 0.081
CAAUUG | – | 1.733 ± 0.0033 | – | 1.87 ± 0.065
UGAACU | – | 1.72 ± 0.052 | – | 1.86 ± 0.11
GCACGA | -0.471 ± 0.043 | 1.43 ± 0.093 | -0.123 ± 0.049 | 1.65 ± 0.11
AUGAUU | -0.57 ± 0.11 | 1.41 ± 0.17 | -0.0144 ± 0.094 | 1.62 ± 0.11
UUACCU | – | 1.74 ± 0.022 | – | 1.86 ± 0.069

Variant | FACS-Seq fitted mean (log10) [1] | normalized RNA/DNA level without ligand (log10) [2] | FACS-Seq fitted mean (log10) [3] | normalized RNA/DNA level with ligand (log10) [4]
ACAAUC | -0.873 ± 0.017 | 1.49 ± 0.043 | -0.61 ± 0.16 | 1.7 ± 0.15
UCUGGA | – | 1.58 ± 0.054 | – | 1.79 ± 0.1
AUCGCG | – | 1.75 ± 0.035 | – | 1.84 ± 0.054
UUUUCU | – | 1.78 ± 0.071 | – | 1.9 ± 0.12
CACCGC | – | 1.759 ± 0.015 | – | 1.85 ± 0.13
CCGCUU | -0.424 ± 0.011 | 1.557 ± 0.013 | -0.124 ± 0.0085 | 1.79 ± 0.076
AUCAGC | – | 1.82 ± 0.025 | – | 1.88 ± 0.13
ACCCUA | – | 1.624 ± 0.011 | – | 1.78 ± 0.072
UACCAU | -0.473 ± 0.0049 | 1.663 ± 0.0085 | -0.0951 ± 0.092 | 1.8 ± 0.12
GCCGGU | 0.00404 ± 0.21 | 1.63 ± 0.03 | 0.3204 ± 0.0024 | 1.79 ± 0.087
CACGCA | -0.406 ± 0.0063 | 1.61 ± 0.04 | -0.00856 ± 0.11 | 1.79 ± 0.11
UCCGCU | – | 1.75 ± 0.052 | – | 1.88 ± 0.08
CGGCGU | – | 1.726 ± 0.013 | – | 1.91 ± 0.16
GAUCUC | – | 1.75 ± 0.02 | – | 1.89 ± 0.15
CAGGAC | – | 1.715 ± 0.017 | – | 1.81 ± 0.1
UUGGGU | – | 1.68 ± 0.024 | – | 1.84 ± 0.088
UUGCAA | – | 1.69 ± 0.075 | – | 1.81 ± 0.037
UUGCAC | – | 1.75 ± 0.024 | – | 1.85 ± 0.11
CUCUGU | – | 1.78 ± 0.062 | – | 1.91 ± 0.06
GUGCGC | – | 1.74 ± 0.057 | – | 1.88 ± 0.056
GGGGGC | -0.722 ± 0.011 | 1.77 ± 0.043 | -0.503 ± 0.012 | 1.87 ± 0.12
GUUGUG | – | 1.66 ± 0.09 | – | 1.82 ± 0.079
GAAUCC | – | 1.75 ± 0.058 | – | 1.86 ± 0.076
